Data on 4 sequences can be found in patent US10562947B2, “Compositions and methods for preventing or treating diseases, conditions or processes characterized by aberrant fibroblast proliferation and extracellular matrix deposition” (MOERAE MATRIX, INC., priority 2011, dated 2020).

What all share (test): Kinase Profiling Assay
Common to all, as to type: biochemical
Common to all, as to conditions: 100 μM peptide

The target in one assay is CLK3(h) (Homo sapiens, UniProt P49761). In a few lines: (§1)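 Specificity of the MK2-directed peptides is examined by measuring activity of 266 human kinases, every determination performed in duplicate.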
Chain of CLK3(h) (P49761 whole entry): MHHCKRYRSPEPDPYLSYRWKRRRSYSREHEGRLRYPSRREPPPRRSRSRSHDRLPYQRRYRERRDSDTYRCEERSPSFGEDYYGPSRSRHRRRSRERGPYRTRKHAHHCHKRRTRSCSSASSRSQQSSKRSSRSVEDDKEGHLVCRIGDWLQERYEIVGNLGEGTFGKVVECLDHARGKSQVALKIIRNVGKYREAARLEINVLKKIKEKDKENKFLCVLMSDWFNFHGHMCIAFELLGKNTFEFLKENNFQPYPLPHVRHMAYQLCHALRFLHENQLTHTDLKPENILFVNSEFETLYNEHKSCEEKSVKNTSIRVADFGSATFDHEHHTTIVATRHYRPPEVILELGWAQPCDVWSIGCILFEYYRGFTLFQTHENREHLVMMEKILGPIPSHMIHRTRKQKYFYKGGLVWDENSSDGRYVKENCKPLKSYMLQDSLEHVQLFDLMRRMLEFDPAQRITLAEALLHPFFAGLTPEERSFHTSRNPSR
In another assay the target is WNK3(h) (Homo sapiens, UniProt Q9BYP7). A digest of the protocol: as §1
Chain of WNK3(h) (Q9BYP7 whole entry): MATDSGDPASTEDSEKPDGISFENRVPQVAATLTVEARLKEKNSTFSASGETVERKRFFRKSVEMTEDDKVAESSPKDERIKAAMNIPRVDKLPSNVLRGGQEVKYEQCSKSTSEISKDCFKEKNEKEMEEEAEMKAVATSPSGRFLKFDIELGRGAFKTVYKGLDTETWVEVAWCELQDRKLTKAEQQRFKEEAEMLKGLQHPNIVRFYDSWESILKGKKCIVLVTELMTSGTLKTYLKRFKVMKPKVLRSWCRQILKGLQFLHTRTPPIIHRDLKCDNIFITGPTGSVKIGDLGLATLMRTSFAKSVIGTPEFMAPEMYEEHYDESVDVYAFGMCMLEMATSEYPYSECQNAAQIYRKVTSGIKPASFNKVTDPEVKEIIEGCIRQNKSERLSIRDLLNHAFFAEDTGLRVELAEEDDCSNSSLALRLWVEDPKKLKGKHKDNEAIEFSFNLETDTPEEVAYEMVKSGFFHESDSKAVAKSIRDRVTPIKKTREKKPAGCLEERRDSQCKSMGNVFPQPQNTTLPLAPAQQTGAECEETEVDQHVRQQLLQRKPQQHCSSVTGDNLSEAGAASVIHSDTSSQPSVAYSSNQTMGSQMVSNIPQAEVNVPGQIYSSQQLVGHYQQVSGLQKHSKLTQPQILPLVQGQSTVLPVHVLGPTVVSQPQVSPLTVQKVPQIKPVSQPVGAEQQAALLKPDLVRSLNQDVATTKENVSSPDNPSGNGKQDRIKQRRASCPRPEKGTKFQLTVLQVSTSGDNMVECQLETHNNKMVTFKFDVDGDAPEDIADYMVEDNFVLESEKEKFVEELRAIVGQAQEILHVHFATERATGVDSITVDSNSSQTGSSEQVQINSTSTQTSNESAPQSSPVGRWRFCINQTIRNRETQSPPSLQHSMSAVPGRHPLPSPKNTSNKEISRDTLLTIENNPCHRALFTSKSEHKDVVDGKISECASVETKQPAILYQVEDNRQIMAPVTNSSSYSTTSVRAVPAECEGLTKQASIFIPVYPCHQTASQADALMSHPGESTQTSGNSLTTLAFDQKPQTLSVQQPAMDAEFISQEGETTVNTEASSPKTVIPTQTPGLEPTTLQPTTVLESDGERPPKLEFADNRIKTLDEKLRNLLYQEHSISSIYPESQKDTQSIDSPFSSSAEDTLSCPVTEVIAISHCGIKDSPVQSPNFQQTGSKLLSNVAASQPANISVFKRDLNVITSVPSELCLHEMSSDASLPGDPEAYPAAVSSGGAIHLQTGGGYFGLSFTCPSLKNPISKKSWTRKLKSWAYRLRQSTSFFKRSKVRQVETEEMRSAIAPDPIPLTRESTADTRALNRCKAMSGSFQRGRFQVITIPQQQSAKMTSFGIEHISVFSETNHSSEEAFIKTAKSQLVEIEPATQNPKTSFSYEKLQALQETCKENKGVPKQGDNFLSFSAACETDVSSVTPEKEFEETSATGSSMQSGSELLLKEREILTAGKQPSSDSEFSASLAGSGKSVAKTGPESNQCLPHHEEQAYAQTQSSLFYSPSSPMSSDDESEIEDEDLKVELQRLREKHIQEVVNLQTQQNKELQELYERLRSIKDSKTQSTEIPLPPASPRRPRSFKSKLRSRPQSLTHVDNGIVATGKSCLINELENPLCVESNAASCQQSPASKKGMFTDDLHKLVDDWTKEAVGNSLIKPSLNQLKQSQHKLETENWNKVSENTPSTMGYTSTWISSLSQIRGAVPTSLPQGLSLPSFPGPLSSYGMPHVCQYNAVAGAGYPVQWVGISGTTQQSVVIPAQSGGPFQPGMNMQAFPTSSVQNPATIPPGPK
A further assay deals with T1, TAK1(h) (Homo sapiens, UniProt O43318).
T1 sequence (O43318 1-303 limits assumed): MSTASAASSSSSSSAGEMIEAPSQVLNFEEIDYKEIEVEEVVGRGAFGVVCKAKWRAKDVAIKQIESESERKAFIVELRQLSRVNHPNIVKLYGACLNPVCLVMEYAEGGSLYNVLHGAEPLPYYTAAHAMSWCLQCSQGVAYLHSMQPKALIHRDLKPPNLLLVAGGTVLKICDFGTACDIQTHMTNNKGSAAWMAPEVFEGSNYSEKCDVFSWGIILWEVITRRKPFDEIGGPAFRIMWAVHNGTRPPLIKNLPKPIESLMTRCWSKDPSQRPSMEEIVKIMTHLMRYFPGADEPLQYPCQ
A digest of the protocol:
as §1

A further assay addresses Pim-2(h) (Homo sapiens, UniProt Q9P1W9). In a few lines:
as §1

The target in the next assay is T2, PRAK(h) (Homo sapiens, UniProt Q8IW41).
T2 construct: purchased Millipore (IC50 Profiler Express service)
T2 sequence (Q8IW41 1-473): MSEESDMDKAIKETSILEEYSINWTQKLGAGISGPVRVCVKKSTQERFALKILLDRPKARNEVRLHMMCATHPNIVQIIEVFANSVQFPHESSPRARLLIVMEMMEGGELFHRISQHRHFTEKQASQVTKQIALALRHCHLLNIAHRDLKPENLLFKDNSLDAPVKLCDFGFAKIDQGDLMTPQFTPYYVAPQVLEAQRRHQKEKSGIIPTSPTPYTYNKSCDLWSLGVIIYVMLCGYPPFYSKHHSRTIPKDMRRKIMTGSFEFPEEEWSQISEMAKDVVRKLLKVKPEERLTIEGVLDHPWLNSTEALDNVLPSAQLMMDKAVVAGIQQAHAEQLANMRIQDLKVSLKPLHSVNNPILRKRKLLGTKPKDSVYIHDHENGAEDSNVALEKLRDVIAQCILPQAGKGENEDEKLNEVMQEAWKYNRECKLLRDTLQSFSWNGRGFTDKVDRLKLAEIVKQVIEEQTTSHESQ
A digest of the protocol:
as §1

In the next assay the target is T3, EphB4(h) (Homo sapiens, UniProt P54760).
T3 sequence (P54760 16-987): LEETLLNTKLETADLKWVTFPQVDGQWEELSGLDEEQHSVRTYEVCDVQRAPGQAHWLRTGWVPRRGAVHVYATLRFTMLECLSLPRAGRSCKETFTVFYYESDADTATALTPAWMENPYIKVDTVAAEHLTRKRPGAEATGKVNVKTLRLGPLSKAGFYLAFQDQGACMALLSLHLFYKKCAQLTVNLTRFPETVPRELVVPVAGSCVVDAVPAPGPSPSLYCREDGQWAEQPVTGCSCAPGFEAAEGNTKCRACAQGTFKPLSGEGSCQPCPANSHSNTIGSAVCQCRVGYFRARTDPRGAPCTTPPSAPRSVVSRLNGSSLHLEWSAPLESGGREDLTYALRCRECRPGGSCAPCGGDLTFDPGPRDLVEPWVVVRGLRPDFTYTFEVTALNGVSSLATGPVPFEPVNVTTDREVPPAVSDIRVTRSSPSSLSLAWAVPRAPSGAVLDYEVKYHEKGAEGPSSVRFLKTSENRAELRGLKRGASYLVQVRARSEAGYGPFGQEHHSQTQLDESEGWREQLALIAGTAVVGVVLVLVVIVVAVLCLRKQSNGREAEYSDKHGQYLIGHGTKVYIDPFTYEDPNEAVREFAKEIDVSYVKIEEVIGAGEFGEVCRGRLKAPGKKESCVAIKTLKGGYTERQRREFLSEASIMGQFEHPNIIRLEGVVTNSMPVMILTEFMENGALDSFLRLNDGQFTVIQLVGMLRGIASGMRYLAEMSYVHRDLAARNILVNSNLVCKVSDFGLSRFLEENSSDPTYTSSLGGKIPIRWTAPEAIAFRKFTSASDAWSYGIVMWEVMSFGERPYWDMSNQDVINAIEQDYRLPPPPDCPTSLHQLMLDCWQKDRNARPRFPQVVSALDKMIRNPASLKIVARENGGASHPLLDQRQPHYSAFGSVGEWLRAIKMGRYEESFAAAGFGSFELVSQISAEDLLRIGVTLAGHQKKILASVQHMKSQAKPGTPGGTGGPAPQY
A digest of the protocol:
as §1

Another assay deals with MAPK2(h) (Homo sapiens, UniProt P28482). A digest of the protocol: as §1
The next assay has as its target CHK2(R145W)(h) (Homo sapiens, UniProt O96017, R145W). In a few lines: as §1
Another assay concerns the target SAPK2a(h) (Homo sapiens, UniProt Q16539). In a few lines:
as §1

A further assay concerns the target Pim-1(h) (Homo sapiens, UniProt P11309). A digest of the protocol:
as §1

A further assay addresses T4, GRK6(h) (Homo sapiens, UniProt P43250).
T4 construct: purchased Millipore
A digest of the protocol: as §1

The next assay has as its target T5, PRK2(h) (Homo sapiens, UniProt Q16513).
T5 construct: purchased Millipore (IC50 Profiler Express service)
A digest of the protocol:
as §1

Chain of Pim-2(h) (Q9P1W9 whole entry): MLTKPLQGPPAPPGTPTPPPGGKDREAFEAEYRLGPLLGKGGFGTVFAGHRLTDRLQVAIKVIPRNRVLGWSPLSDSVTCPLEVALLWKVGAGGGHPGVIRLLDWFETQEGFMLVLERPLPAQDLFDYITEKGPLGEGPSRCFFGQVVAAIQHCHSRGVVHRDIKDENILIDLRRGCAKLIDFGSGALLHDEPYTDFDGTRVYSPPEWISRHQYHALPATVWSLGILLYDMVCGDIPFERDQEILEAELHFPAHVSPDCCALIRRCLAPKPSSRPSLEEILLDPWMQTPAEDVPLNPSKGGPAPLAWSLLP
Chain of Pim-1(h) (P11309 whole entry): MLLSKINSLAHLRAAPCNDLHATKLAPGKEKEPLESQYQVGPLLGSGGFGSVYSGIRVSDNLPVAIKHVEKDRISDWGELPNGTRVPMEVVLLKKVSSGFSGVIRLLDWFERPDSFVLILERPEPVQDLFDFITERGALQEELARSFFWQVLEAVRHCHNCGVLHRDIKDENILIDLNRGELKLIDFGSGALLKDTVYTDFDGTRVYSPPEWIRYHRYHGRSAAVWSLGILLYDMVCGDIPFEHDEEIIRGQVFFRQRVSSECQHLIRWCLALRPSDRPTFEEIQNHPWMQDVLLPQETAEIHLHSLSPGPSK
Chain of SAPK2a(h) (Q16539 whole entry): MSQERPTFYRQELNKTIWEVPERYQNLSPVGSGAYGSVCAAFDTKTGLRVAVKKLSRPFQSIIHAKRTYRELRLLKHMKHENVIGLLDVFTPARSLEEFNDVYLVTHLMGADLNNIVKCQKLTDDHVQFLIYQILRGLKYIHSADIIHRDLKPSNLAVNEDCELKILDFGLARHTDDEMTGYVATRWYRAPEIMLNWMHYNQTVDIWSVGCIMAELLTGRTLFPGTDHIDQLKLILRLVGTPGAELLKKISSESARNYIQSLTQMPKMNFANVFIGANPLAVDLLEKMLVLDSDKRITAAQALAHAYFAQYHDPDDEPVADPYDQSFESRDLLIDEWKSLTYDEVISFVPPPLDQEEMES
T5 sequence (Q16513 whole entry): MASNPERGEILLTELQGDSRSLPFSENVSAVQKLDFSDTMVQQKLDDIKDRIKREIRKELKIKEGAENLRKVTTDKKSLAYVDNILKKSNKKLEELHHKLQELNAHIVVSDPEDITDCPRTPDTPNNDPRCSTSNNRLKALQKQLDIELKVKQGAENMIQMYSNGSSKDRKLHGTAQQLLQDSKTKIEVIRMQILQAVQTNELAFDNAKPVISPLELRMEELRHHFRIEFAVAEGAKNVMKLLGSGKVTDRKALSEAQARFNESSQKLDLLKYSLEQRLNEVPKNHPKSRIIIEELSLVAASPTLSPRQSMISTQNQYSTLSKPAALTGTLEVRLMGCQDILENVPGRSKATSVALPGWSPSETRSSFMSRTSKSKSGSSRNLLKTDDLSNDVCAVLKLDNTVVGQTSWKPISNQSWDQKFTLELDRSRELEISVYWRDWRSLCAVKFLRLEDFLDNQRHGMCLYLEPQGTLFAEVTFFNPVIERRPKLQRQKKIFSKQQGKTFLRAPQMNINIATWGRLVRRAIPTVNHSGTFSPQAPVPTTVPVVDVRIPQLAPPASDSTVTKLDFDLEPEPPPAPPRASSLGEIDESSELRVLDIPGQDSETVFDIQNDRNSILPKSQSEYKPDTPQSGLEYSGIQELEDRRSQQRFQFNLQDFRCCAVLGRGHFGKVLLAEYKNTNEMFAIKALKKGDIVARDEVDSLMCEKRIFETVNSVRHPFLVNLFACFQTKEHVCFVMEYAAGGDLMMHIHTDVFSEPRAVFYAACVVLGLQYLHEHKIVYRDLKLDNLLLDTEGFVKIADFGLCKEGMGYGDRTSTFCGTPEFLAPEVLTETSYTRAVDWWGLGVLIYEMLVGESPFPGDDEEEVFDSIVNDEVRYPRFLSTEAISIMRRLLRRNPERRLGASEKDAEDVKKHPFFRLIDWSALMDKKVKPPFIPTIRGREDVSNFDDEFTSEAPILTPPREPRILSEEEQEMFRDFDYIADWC
T4 sequence (P43250 whole entry): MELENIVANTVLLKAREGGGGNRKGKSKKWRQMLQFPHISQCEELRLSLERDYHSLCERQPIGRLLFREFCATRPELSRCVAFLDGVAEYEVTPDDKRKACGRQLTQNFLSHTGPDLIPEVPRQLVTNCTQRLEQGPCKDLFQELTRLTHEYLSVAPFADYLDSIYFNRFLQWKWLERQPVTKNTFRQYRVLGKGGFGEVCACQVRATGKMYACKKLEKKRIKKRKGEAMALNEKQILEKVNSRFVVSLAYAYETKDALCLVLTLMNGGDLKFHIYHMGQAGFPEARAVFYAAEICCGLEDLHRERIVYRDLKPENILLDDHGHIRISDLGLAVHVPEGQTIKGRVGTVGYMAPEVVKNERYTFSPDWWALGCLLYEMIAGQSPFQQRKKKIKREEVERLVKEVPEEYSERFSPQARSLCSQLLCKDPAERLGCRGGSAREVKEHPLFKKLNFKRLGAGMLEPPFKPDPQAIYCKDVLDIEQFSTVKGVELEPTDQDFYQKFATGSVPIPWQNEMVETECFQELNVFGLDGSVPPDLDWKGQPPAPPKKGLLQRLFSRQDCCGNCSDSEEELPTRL

Turning to FAKLAARLYRKALARQLGVAA [MMI-0300], in the assay with CLK3(h), the “CLK3(h) % activity” value was determined as 61%. Further, the “WNK3(h) % activity” value in the assay with WNK3(h) is reported as 77%. The “TAK1(h) % activity” value with TAK1(h) is 122%. In the assay with Pim-2(h), the “Pim-2(h) % activity” value was determined as 76%. The “PRAK(h) % activity” value with PRAK(h) is listed as 128%. In addition, in the assay with EphB4(h), the “EphB4(h) % activity” value came to 44%. Moreover, the “MAPK2(h) % activity” value with MAPK2(h) was 98%. Besides, in the assay with CHK2(R145W)(h), the “CHK2(R145W)(h) % activity” value was determined as 33%. In addition, the “SAPK2a(h) % activity” value with SAPK2a(h) worked out at 90%. Also, the “Pim-1(h) % activity” value with Pim-1(h) is 8%. The “GRK6(h) % activity” value with GRK6(h) is on record as 147%. For the same sequence, the “PRK2(h) % activity” value with PRK2(h) was 33%.

For KAFAKLAARLYRKALARQLGVAA [MMI-0400], the “CLK3(h) % activity” value in the assay with CLK3(h) turned out to be 84%. Further, in the assay with WNK3(h), the “WNK3(h) % activity” value amounted to 74%. Besides, in the assay with TAK1(h), the “TAK1(h) % activity” value is on record as 177%. In addition, the “Pim-2(h) % activity” value with Pim-2(h) turned out to be 92%. Further, in the assay with PRAK(h), the “PRAK(h) % activity” value came to 118%. For the same sequence, the “EphB4(h) % activity” value with EphB4(h) stood at 28%. For the same sequence, the “MAPK2(h) % activity” value in the assay with MAPK2(h) was found to be 93%. In addition, in the assay with CHK2(R145W)(h), the “CHK2(R145W)(h) % activity” value is recorded as 31%. In addition, the “SAPK2a(h) % activity” value in the assay with SAPK2a(h) turned out to be 85%. For the same sequence, in the assay with Pim-1(h), the “Pim-1(h) % activity” value is on record as 7%. In the assay with GRK6(h), the “GRK6(h) % activity” value worked out at 141%. The “PRK2(h) % activity” value in the assay with PRK2(h) turned out to be 27%.

Take “HRRIKAWLKKIKALARQLGVAA (Mammalian) [MMI-0500]”: in the assay with CLK3(h), the “CLK3(h) % activity” value is 76%. The “WNK3(h) % activity” value in the assay with WNK3(h) is reported as 9%. Besides, in the assay with Pim-2(h), the “Pim-2(h) % activity” value was determined as 46%. For the same sequence, the “PRAK(h) % activity” value with PRAK(h) is listed as 95%. Besides, the “EphB4(h) % activity” value in the assay with EphB4(h) is recorded as 38%. Also, in the assay with MAPK2(h), the “MAPK2(h) % activity” value is 60%. Further, the “CHK2(R145W)(h) % activity” value with CHK2(R145W)(h) is recorded as 3%. Moreover, the “SAPK2a(h) % activity” value with SAPK2a(h) stood at 52%. The “Pim-1(h) % activity” value in the assay with Pim-1(h) worked out at 0%. Further, the “GRK6(h) % activity” value with GRK6(h) worked out at 174%. The “PRK2(h) % activity” value with PRK2(h) is listed as 7%.

On to “YARAAARQARAKALNRQLGVA (Mammalian) [MMI-0200]”, for which, in the assay with CLK3(h), the “CLK3(h) % activity” value was 76%. The “WNK3(h) % activity” value in the assay with WNK3(h) was determined as 97%. Further, the “TAK1(h) % activity” value with TAK1(h) was 124%. Also, the “Pim-2(h) % activity” value with Pim-2(h) is 74%. In addition, the “EphB4(h) % activity” value in the assay with EphB4(h) worked out at 131%. Also, the “CHK2(R145W)(h) % activity” value in the assay with CHK2(R145W)(h) was found to be 81%. The “Pim-1(h) % activity” value with Pim-1(h) came out at 18%. Moreover, the “GRK6(h) % activity” value with GRK6(h) worked out at 132%. Further, the “PRK2(h) % activity” value in the assay with PRK2(h) was 74%.
